Results from US11447550B2, “Peptides for molecular detection of PD-L1” (THE CURATORS OF THE UNIVERSITY OF MISSOURI, priority 2016, dated 2022).
Ends that are not written are not given here.

Key:
PD-L1 [1] = target: T1, PD-L1 (Homo sapiens, UniProt Q9NZQ7); test: Flow cytometry using cultured cell lines with Cy5-conjugated peptide; format: cell-based; set-up: Seven PD-L1 expressing NSCLC patient tissues were obtained from the MU OneHealth tissue bank; tissue MU OneHealth tissue bank; U.S. Biomax (TMA) LC1923; host or cells: FFPE placenta, seven NSCLC patient tissues, 192-case lung cancer tissue microarray, four Hodgkin's lymphoma cases; details: for MFI relative to MDA-MB-231: all lower peptide concentrations, FIG. 6A
Description: Cell lines MDA-MB-231, Y79, and MCF-7 were purchased from ATCC, thawed, and grown in culture to confluency. When confluent, adherent cells were removed from the flask by scraping gently with a cell scraper and media removed using centrifugation. Suspension cells were pipetted from the flask and centrifuged to remove media. Cell lines were resuspended in Eppendorf tubes in 100 μL PBS at a concentration of 5×10^6 cells per mL. Cy5-conjugated peptide solution was then added to the tubes to make the desired concentration of peptide in 200 μL. Eppendorf tubes were then placed in the incubator for 1 hour and vortexed at the 30-minute mark. After 1 hour, cell lines were analyzed on a BD FACS Canto II, a 3-laser, 8-color flow cytometer (San Jose, Calif.) using Diva 8.0 acquisition and analysis software (San Jose, Calif.). The cells of interest were gated using Forward and Side scatter (FSC/SSC) and positive antibody expression. 10,000 singlet events were collected for each specimen.
RK-10-Cy5 was then investigated for PD-L1 specificity using flow cytometry in cultured cell lines and patient tissues. […] To set our conditions for flow cytometry, titrations of PD-L1 peptide using all three cell lines were first examined. In each of the samples double-positives were selected by analyzing expression of both cytokeratin (FITC channel) and PD-L1 (Cy5 channel) (FIG. 15). […] Samples containing 0.1 and 0.05 mg/mL concentrations were deemed to have fluorescence intensities too high for accurate analysis for each cell line. Y79 and MCF7 both have a much lower PD-L1 expression than MDA-MB-231, which correlates with expression seen using Cy5 conjugated peptide and comparing the cell lines with flow cytometry. […] The MCF7 sample containing 0.005 mg/ml was much higher than anticipated due to this sample being treated twice with peptide. 0.005 mg/mL was selected as optimal concentration based on these comparisons, and all subsequent flow cytometry experiments were performed using this concentration. Lung cancer cell lines A549 (low PD-L1) and HCC827 (high PD-L1) were investigated for PD-L1 expression using both phycoerythrin-conjugated cd274 and RK-10-Cy5 (FIG. 6B). Cell lines were cultured as before and treated with either antibody or peptide in buffer. […] The antibody associated fluorescence was higher than the peptide associated fluorescence in both samples, which is attributed to differences in titrating peptide and antibody.

PD-L1 [2] = target: T1, PD-L1; test: Immunohistochemistry using Cy5-peptide (fluorescence) on FFPE tissues and lung cancer TMA; format: binding; set-up: Seven PD-L1 expressing NSCLC patient tissues were obtained from the MU OneHealth tissue bank; tissue MU OneHealth tissue bank; U.S. Biomax (TMA) LC1923; host or cells: FFPE placenta, seven NSCLC patient tissues, 192-case lung cancer tissue microarray, four Hodgkin's lymphoma cases
From the text: PD-L1 expression was investigated in the same seven FFPE tissues and 192 lung cancer cases on a microarray using our peptide conjugated with Cy5 fluorophore. A lung cancer tissue microarray (TMA) was purchased from U.S. Biomax that contains 192 separate cases of various types of lung cancers (LC1923, biomax.us). In addition, seven NSCLC patient tissues were obtained from the Mizzou OneHealth tissue bank and de-identified according to IRB protocols. Paraffin-embedded tissue slides were baked overnight, then de-waxed and rehydrated according to standard protocols. Tissue sections were then subjected to antigen retrieval in EDTA at 95° C. for 20 minutes in EDTA ([…]). The solution was cooled for an additional 20 minutes on the bench top prior to buffer rinse. Tissues were then incubated with 15 μM Cy5-conjugated peptide for 2 hours in a humid chamber in the dark at RT. After 2 hours, slides were washed with buffer. The slides were then mounted using nucleus-specific DAPI counterstain and cover slipped. Slides were then imaged using fluorescence microscopy on a Leica DM5500 and compared to the same sections which had been stained with the Ventana antibody. For fluorescent analysis, DAPI channels and Cy5 channels were overlaid to image cell nuclei and PD-L1 expression, respectively.
Staining of the placenta and seven selected NSCLC patient tissues was again compared using the SP263 antibody and RK-10-Cy5 which was conjugated with a Cy5 fluorophore (FIG. 16). To stain with the fluorescent PD-L1 peptide, antigen retrieval was performed and tissue slides were treated with 15 μM fluorescent peptide in a dark, humid chamber for 2 hours, washed with buffer, then counter-stained and mounted with DAPI nucleus stain. Peptide-stained slides were imaged on a Leica DM5500 using channels specific for DAPI or Cy5, and channels were overlaid to examine PD-L1 expression. To confirm the data from the IHC stained tissues, the same seven patient tissues A-G were stained with RK-10-Cy5 (FIG. 10). […]

T1 sequence (Q9NZQ7 19-290): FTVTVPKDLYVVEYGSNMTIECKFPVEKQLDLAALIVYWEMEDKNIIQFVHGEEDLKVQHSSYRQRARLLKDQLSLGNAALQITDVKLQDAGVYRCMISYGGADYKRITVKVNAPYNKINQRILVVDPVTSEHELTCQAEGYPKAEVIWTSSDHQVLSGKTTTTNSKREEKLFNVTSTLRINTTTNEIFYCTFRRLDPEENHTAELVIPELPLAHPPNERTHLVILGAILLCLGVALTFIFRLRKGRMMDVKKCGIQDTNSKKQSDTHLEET

Substance: Cy5-GSGSGSTYLCGAISLAPKAQIKESL [RK-10-Cy5]
- MFI relative to MDA-MB-231 (PD-L1 [1]; MCF7 cells (no meaningful PD-L1 expression)): close to tenfold lower
- mean fluorescence intensity (MFI) (PD-L1 [1]; MDA-MB-231 cells (very high PD-L1), Cy5 channel, 0.005 mg/mL peptide, FIG. 7A): 9,448
- MFI relative to MDA-MB-231 (PD-L1 [1]; Y79 cells (no meaningful PD-L1 expression)): close to tenfold lower
- signal associated with PD-L1 expression, HCC827 versus A549 (PD-L1 [1]; lung cancer lines HCC827 (high PD-L1) vs A549 (low PD-L1), FIG. 6B): much higher signal
- tumor staining in lung cancer tissue microarray (PD-L1 [2]; 192 lung cancer cases (U.S. Biomax TMA), majority of cases, FIG. 11 panels d, e, f): consistent, specific staining in tumor cells and immune infiltrate
- staining of Reed-Sternberg cells (PD-L1 [2]; four Hodgkin's lymphoma patient samples, FIG. 13): showed PD-L1 staining
- fluorescent tumor staining in NSCLC patient tissues (PD-L1 [2]; seven NSCLC patient tissues A-G, 15 μM fluorescent peptide, 2 hours, FIG. 10): stained many areas of tumor that the SP263 antibody did not
